{"source": "paper PMC5470993", "about": "“Discovery and characterization of small molecule Rac1 inhibitors” (Oncotarget, 2017)", "binders": {"B1": {"name": "GST-PAK1-PBD (70-117aa) (domain or fragment)", "chain": "KERPEISLPSDFEHTIHVGFDAVTGEFTGMPEQWARLLQTSNITKSEQ", "notes": "Held on glutathione/agarose beads; The methods also name a Rac1/Cdc42 assay kit (Upstate Biotechnology); also called GST-PAK1 (RBD); source: E. coli DH5α, purified on glutathione resin; plasmid from Addgene"}}, "target": "Recombinant Rac1 (1-192aa), His-tagged fusion protein (UniProt P63000 1-192)", "assay": "pull-down; cell-free: 5 μg purified His-Rac1 in 20 μl GTP binding buffer (20 mM Tris-HCl pH 7.6, 100 mM NaCl, 2 mM MgCl2, 1 mM DTT) with 1% BSA, GTP-γS (0.01-10 μM, or 200 nM after 1 h with compound #1 or #6) for 10 min at room temperature, then 1 h with GST-PAK1 on agarose beads; Rac1 immunoblot", "conditions": "both partners purified"}
{"binder": "B1", "values": [{"measurement": "binding result", "result": "binds"}]}
